{"source": "paper PMC2816219", "target": "F-actin (non-muscle human actin, pre-polymerized in vitro) (human) (UniProt P60709)", "test": "co-sedimentation; constant protein (16 nM GST-ARN127(25), 150 nM GST-Htt exon 1(25)) with increasing F-actin (0-8 µM or 0-16 µM); gels quantified for percent bound; approximate Kd"}
{"substance": "GST-ARN127(25) (from UniProt P10275 1-127) (domain or fragment)", "values": [{"measurement": "Kd", "value": 1000, "unit": "nM"}]}
{"substance": "GST-Htt exon 1(25) (domain or fragment)", "values": [{"measurement": "Kd", "value": 2000, "unit": "nM"}]}
